Holding throughout (assay): cell-based or functional assay
The target of test [1] is T1, human amylin 3(a) receptor (human calcitonin receptor + RAMP-3) (human, UniProt P30988 25-474; O60896 24-148).
T1 sequence (looked up) 1: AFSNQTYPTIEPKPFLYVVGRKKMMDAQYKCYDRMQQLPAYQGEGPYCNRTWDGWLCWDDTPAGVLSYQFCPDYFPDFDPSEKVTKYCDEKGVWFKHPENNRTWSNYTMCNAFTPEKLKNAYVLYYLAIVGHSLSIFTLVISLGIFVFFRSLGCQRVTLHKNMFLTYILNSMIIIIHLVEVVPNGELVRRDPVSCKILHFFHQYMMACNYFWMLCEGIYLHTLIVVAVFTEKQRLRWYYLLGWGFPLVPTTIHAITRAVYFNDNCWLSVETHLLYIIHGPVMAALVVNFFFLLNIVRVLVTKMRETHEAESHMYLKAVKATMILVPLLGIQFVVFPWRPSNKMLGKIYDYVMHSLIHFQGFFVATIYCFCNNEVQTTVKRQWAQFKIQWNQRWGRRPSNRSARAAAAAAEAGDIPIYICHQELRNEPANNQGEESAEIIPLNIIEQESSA
T1 sequence (looked up) 2: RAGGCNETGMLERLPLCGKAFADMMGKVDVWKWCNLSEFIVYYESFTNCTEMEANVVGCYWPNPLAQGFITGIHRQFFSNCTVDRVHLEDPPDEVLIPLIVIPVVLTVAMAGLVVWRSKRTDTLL

The target of test [2] is T2, rat calcitonin (a) receptor (rat, UniProt P32214 25-516).
T2 sequence (looked up): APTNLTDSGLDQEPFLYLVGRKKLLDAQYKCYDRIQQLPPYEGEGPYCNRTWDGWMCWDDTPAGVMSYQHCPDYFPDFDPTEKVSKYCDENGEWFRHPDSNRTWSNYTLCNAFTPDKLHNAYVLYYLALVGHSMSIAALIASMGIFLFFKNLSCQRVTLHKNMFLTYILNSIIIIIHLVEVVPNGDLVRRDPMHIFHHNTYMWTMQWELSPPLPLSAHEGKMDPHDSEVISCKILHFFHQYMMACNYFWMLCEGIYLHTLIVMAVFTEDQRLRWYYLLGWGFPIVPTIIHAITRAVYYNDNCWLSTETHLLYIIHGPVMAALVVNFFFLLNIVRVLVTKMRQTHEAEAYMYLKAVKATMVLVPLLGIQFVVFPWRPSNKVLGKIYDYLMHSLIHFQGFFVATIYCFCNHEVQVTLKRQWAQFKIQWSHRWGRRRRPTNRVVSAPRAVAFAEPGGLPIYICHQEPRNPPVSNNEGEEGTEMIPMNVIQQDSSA

Test [3] has as its target T3, rat amylin 3(a) receptor (rat calcitonin(a) receptor + rat RAMP3) (rat, UniProt P32214 25-516; Q9JJ73 23-147).
T3 sequence (looked up) 1: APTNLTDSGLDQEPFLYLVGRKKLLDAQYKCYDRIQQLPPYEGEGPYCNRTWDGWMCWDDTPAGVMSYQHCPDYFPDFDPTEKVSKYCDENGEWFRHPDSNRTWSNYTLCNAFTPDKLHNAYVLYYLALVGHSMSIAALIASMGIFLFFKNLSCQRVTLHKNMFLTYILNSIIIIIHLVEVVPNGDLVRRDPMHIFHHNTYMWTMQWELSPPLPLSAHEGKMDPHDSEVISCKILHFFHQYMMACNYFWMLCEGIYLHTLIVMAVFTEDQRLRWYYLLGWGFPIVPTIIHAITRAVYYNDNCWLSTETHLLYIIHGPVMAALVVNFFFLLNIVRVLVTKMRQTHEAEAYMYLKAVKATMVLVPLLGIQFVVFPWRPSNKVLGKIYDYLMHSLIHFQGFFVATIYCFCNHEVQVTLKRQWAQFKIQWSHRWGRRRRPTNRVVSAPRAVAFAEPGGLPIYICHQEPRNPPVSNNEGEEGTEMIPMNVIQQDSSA
T3 sequence (looked up) 2: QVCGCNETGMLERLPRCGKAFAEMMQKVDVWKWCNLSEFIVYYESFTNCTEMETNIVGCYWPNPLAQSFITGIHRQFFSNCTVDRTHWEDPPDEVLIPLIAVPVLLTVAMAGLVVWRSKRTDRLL

Test [4] addresses T4, human calcitonin (a) receptor (human, UniProt P30988 25-474).
T4 sequence (looked up): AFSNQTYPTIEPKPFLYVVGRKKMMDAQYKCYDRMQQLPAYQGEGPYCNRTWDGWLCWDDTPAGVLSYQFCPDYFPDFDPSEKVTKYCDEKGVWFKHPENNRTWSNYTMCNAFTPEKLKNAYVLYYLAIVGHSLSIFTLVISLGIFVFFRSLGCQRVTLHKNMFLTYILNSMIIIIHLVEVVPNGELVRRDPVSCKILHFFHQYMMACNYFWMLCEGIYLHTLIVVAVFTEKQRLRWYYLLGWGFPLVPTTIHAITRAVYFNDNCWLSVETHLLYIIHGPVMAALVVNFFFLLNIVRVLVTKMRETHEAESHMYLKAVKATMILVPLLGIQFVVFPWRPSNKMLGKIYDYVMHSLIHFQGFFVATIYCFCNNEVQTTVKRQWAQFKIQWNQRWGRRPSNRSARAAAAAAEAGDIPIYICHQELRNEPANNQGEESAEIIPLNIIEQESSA

Starred links: 1 amine or outer side, 2 acyl side, 3 side chain; linkers in the order of their positions; H or OH if unused. Positions of bridges follow the written chain, without caps; N, C: chain ends. *: point of attachment. X1 = (S)‑4‑Carboxy‑4‑(19-carboxynonadecanoylamino)butyryl, O=C(O)CCCCCCCCCCCCCCCCCCC(=O)N[C@@H](CCC(=O)*)C(=O)O; C20 diacid = O=C(O)CCCCCCCCCCCCCCCCCCC(=O)*; γGlu = O=C(O)[C@H](CCC(=O)[*:2])N[*:1]

B1: N-alpha-[(S)-4-Carboxy-4-(19-carboxynonadecanoylamino)butyryl]-Gly-[Arg1,Glu14,His17,Pro37]-pramlintide (peptide)
peptide: {C20 diacid-γGlu}-GRCNTATCATQRLAEFLHHSSNNFGPILPPTNVGSNTP-NH2
modifications: disulfide 3-8
SMILES: CC[C@H](C)[C@H](NC(=O)[C@@H]1CCCN1C(=O)CNC(=O)[C@H](Cc1ccccc1)NC(=O)[C@H](CC(N)=O)NC(=O)[C@H](CC(N)=O)NC(=O)[C@H](CO)NC(=O)[C@H](CO)NC(=O)[C@H](Cc1c[nH]cn1)NC(=O)[C@H](Cc1c[nH]cn1)NC(=O)[C@H](CC(C)C)NC(=O)[C@H](Cc1ccccc1)NC(=O)[C@H](CCC(=O)O)NC(=O)[C@H](C)NC(=O)[C@H](CC(C)C)NC(=O)[C@H](CCCNC(=N)N)NC(=O)[C@H](CCC(N)=O)NC(=O)[C@@H](NC(=O)[C@H](C)NC(=O)[C@@H]1CSSC[C@H](NC(=O)[C@H](CCCNC(=N)N)NC(=O)CNC(=O)CC[C@H](NC(=O)CCCCCCCCCCCCCCCCCCC(=O)O)C(=O)O)C(=O)N[C@@H](CC(N)=O)C(=O)N[C@@H]([C@@H](C)O)C(=O)N[C@@H](C)C(=O)N[C@@H]([C@@H](C)O)C(=O)N1)[C@@H](C)O)C(=O)N[C@@H](CC(C)C)C(=O)N1CCC[C@H]1C(=O)N1CCC[C@H]1C(=O)N[C@H](C(=O)N[C@@H](CC(N)=O)C(=O)N[C@H](C(=O)NCC(=O)N[C@@H](CO)C(=O)N[C@@H](CC(N)=O)C(=O)N[C@H](C(=O)N1CCC[C@H]1C(N)=O)[C@@H](C)O)C(C)C)[C@@H](C)O
Turning to B1, in test [1], the “Amylin receptor human EC50” value was 0.0515 nM. Moreover, the “CTa receptor rat EC50” value in test [2] is 0.044 nM. Besides, the “Amylin receptor rat EC50” value in test [3] is 0.075 nM. The “CTa receptor human EC50” value in test [4] was 0.0455 nM.

B2: N-alpha-[(S)-4-Carboxy-4-(19-carboxynonadecanoylamino)butyryl]-[Arg1,Glu14,His17,Pro37]-pramlintide (peptide)
peptide: {C20 diacid-γGlu}-RCNTATCATQRLAEFLHHSSNNFGPILPPTNVGSNTP-NH2
modifications: disulfide 2-7
SMILES: CC[C@H](C)[C@H](NC(=O)[C@@H]1CCCN1C(=O)CNC(=O)[C@H](Cc1ccccc1)NC(=O)[C@H](CC(N)=O)NC(=O)[C@H](CC(N)=O)NC(=O)[C@H](CO)NC(=O)[C@H](CO)NC(=O)[C@H](Cc1c[nH]cn1)NC(=O)[C@H](Cc1c[nH]cn1)NC(=O)[C@H](CC(C)C)NC(=O)[C@H](Cc1ccccc1)NC(=O)[C@H](CCC(=O)O)NC(=O)[C@H](C)NC(=O)[C@H](CC(C)C)NC(=O)[C@H](CCCNC(=N)N)NC(=O)[C@H](CCC(N)=O)NC(=O)[C@@H](NC(=O)[C@H](C)NC(=O)[C@@H]1CSSC[C@H](NC(=O)[C@H](CCCNC(=N)N)NC(=O)CC[C@H](NC(=O)CCCCCCCCCCCCCCCCCCC(=O)O)C(=O)O)C(=O)N[C@@H](CC(N)=O)C(=O)N[C@@H]([C@@H](C)O)C(=O)N[C@@H](C)C(=O)N[C@@H]([C@@H](C)O)C(=O)N1)[C@@H](C)O)C(=O)N[C@@H](CC(C)C)C(=O)N1CCC[C@H]1C(=O)N1CCC[C@H]1C(=O)N[C@H](C(=O)N[C@@H](CC(N)=O)C(=O)N[C@H](C(=O)NCC(=O)N[C@@H](CO)C(=O)N[C@@H](CC(N)=O)C(=O)N[C@H](C(=O)N1CCC[C@H]1C(N)=O)[C@@H](C)O)C(C)C)[C@@H](C)O
B2: the “Amylin receptor human EC50” value in test [1] was 0.043 nM. The “CTa receptor rat EC50” value in test [2] came to 0.058 nM. Moreover, in test [3], the “Amylin receptor rat EC50” value is 0.088 nM. The “CTa receptor human EC50” value in test [4] came to 0.055 nM.

B3: N-alpha-[(S)-4-Carboxy-4-(19-carboxynonadecanoylamino)butyryl]-[Glu14,His35]-pramlintide (peptide)
peptide: {C20 diacid-γGlu}-KCNTATCATQRLAEFLVHSSNNFGPILPPTNVGSHTY-NH2
modifications: disulfide 2-7
SMILES: CC[C@H](C)[C@H](NC(=O)[C@@H]1CCCN1C(=O)CNC(=O)[C@H](Cc1ccccc1)NC(=O)[C@H](CC(N)=O)NC(=O)[C@H](CC(N)=O)NC(=O)[C@H](CO)NC(=O)[C@H](CO)NC(=O)[C@H](Cc1c[nH]cn1)NC(=O)[C@@H](NC(=O)[C@H](CC(C)C)NC(=O)[C@H](Cc1ccccc1)NC(=O)[C@H](CCC(=O)O)NC(=O)[C@H](C)NC(=O)[C@H](CC(C)C)NC(=O)[C@H](CCCNC(=N)N)NC(=O)[C@H](CCC(N)=O)NC(=O)[C@@H](NC(=O)[C@H](C)NC(=O)[C@@H]1CSSC[C@H](NC(=O)[C@H](CCCCN)NC(=O)CC[C@H](NC(=O)CCCCCCCCCCCCCCCCCCC(=O)O)C(=O)O)C(=O)N[C@@H](CC(N)=O)C(=O)N[C@@H]([C@@H](C)O)C(=O)N[C@@H](C)C(=O)N[C@@H]([C@@H](C)O)C(=O)N1)[C@@H](C)O)C(C)C)C(=O)N[C@@H](CC(C)C)C(=O)N1CCC[C@H]1C(=O)N1CCC[C@H]1C(=O)N[C@H](C(=O)N[C@@H](CC(N)=O)C(=O)N[C@H](C(=O)NCC(=O)N[C@@H](CO)C(=O)N[C@@H](Cc1c[nH]cn1)C(=O)N[C@H](C(=O)N[C@@H](Cc1ccc(O)cc1)C(N)=O)[C@@H](C)O)C(C)C)[C@@H](C)O
B3: in test [1], the “Amylin receptor human EC50” value was determined as 0.136 nM. Moreover, in test [2], the “CTa receptor rat EC50” value came out at 0.215 nM. Further, the “Amylin receptor rat EC50” value in test [3] amounted to 0.138 nM. Further, the “CTa receptor human EC50” value in test [4] was 0.18 nM.

B4: N-alpha-[(S)-4-Carboxy-4-(19-carboxynonadecanoylamino)butyryl]-[His1,Glu14,Arg17,Pro37]-pramlintide (peptide)
peptide: X1-HCNTATCATQRLAEFLRHSSNNFGPILPPTNVGSNTP-NH2
modifications: disulfide 2-7
SMILES: CC[C@H](C)[C@H](NC(=O)[C@@H]1CCCN1C(=O)CNC(=O)[C@H](Cc1ccccc1)NC(=O)[C@H](CC(N)=O)NC(=O)[C@H](CC(N)=O)NC(=O)[C@H](CO)NC(=O)[C@H](CO)NC(=O)[C@H](Cc1c[nH]cn1)NC(=O)[C@H](CCCNC(=N)N)NC(=O)[C@H](CC(C)C)NC(=O)[C@H](Cc1ccccc1)NC(=O)[C@H](CCC(=O)O)NC(=O)[C@H](C)NC(=O)[C@H](CC(C)C)NC(=O)[C@H](CCCNC(=N)N)NC(=O)[C@H](CCC(N)=O)NC(=O)[C@@H](NC(=O)[C@H](C)NC(=O)[C@@H]1CSSC[C@H](NC(=O)[C@H](Cc2c[nH]cn2)NC(=O)CC[C@H](NC(=O)CCCCCCCCCCCCCCCCCCC(=O)O)C(=O)O)C(=O)N[C@@H](CC(N)=O)C(=O)N[C@@H]([C@@H](C)O)C(=O)N[C@@H](C)C(=O)N[C@@H]([C@@H](C)O)C(=O)N1)[C@@H](C)O)C(=O)N[C@@H](CC(C)C)C(=O)N1CCC[C@H]1C(=O)N1CCC[C@H]1C(=O)N[C@H](C(=O)N[C@@H](CC(N)=O)C(=O)N[C@H](C(=O)NCC(=O)N[C@@H](CO)C(=O)N[C@@H](CC(N)=O)C(=O)N[C@H](C(=O)N1CCC[C@H]1C(N)=O)[C@@H](C)O)C(C)C)[C@@H](C)O
As for B4, in test [1], the “Amylin receptor human EC50” value was 0.0325 nM. For the same molecule, the “CTa receptor rat EC50” value in test [2] is 0.128 nM. Moreover, in test [3], the “Amylin receptor rat EC50” value worked out at 0.217 nM. For the same molecule, the “CTa receptor human EC50” value in test [4] was found to be 0.0475 nM.

Source of the values: patent US20130005646A1 (Novo Nordisk, published 2013).
